Results taken from PMC10883267 (2023).

Key:
Test in all cases: pulldown with E. coli lysates, quantified
[1] = molecular target: eIF4E-binding motif of human eIF4EBP1 (50-83) (UniProt Q13541); settings: n = 3 independent experiments; parent: est. 0.90; read off a plot
[2] = molecular target: eIF4E-binding motif of human eIF4ENIF1 (27-63) (UniProt Q9NRA8); settings: n = 3 independent experiments; parent: est. 2.5; read off a plot
[3] = molecular target: eIF4E-binding motif of human eIF4G (608-647) (UniProt Q04637); settings: n = 3 independent experiments; parent: est. 0.30; read off a plot
eIF4E-binding motif of human eIF4G (608-647), sequence (Q04637 608-647): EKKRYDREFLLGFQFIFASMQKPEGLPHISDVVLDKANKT

mouse eIF4E1B (63-244) (from UniProt Q3UTA9) Dorsal (W101 mutated; new residue not printed), sequence (Q3UTA9 63-244, change not shown): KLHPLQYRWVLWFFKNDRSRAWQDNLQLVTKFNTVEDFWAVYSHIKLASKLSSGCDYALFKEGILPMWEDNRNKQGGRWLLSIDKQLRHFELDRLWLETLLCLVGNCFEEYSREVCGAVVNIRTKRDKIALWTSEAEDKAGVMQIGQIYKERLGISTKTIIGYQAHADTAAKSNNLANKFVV
mouse eIF4E1B (63-244) (from UniProt Q3UTA9) Lateral (V91, T92, I107 mutated; new residues not printed), sequence (Q3UTA9 63-244, change not shown): as above
eIF4E-binding motif of human eIF4ENIF1 (27-63), sequence (Q9NRA8 27-63): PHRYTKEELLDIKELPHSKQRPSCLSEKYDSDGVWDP
eIF4E-binding motif of human eIF4EBP1 (50-83), sequence (Q13541 50-83): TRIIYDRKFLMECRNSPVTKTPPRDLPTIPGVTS

| other: Binding (rel. to Mm eIF4E) (rel. to Mm eIF4E) [1] | other: Binding (rel. to Mm eIF4E) (rel. to Mm eIF4E) [2] | other: Binding (rel. to Mm eIF4E) (rel. to Mm eIF4E) [3] | Substance |
| --- | --- | --- | --- |
| 0.2 | 0.9 | 0.12 | mouse eIF4E1B (63-244) (from UniProt Q3UTA9) Lateral (V91, T92, I107 mutated; new residues not printed) |
| 0.1 | 0.15 | 0.2 | mouse eIF4E1B (63-244) (from UniProt Q3UTA9) Dorsal (W101 mutated; new residue not printed) |
